Laboratory results taken from patent US20210009963A1 (LYSENTECH, published 2021).

Target: T1, wild type bacteriophage T7 (bacteriophage T7, UniProt P19726 1-345; P19727 1-398)
T1 construct: Whole phage particle without a homing peptide, used as the control; also called WT T7; wild type T7
T1 sequence 1: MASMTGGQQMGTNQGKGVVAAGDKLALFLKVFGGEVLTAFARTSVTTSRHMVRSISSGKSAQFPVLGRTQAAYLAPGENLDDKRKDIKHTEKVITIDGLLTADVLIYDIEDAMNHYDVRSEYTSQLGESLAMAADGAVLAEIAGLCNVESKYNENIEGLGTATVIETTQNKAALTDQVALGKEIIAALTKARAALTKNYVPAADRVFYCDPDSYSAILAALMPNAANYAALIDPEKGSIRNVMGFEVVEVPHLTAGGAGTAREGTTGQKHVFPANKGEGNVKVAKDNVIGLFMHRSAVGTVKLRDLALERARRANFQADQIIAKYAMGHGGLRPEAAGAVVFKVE
T1 sequence 2: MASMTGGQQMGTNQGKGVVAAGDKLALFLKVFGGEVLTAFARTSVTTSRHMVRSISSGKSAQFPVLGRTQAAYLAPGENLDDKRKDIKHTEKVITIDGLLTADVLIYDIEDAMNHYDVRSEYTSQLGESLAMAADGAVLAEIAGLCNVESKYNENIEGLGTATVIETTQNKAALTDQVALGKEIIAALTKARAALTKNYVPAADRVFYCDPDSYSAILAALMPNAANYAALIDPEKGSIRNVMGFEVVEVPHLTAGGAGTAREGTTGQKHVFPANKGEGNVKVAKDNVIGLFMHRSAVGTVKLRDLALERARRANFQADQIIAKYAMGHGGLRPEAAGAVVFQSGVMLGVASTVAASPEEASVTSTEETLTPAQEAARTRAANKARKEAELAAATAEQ
Experiment: confocal fluorescence microscopy of B16F10 cells, anti-T7 antibody staining after washing

B1: grp78 on B16F10 mouse melanoma cells (receptor)
chain: not shown
notes: whole, on cells; The assay was done on whole B16F10 cells; also called receptor for pep42; B16F10 cells
B1: no binding (tested: 1×10^7 PFU of phages).
